Target: human C1q (human) (UniProt P02745)
Assay: C1q (50 nM) with 100 nM antibody on TNFa-activated HUVECs; bound C1q detected with biotinylated polyclonal anti-C1q and imaging; normalised to isotype IgG

Sequence of UniProt P02745 (P02745 23-245, chain 1 of 3): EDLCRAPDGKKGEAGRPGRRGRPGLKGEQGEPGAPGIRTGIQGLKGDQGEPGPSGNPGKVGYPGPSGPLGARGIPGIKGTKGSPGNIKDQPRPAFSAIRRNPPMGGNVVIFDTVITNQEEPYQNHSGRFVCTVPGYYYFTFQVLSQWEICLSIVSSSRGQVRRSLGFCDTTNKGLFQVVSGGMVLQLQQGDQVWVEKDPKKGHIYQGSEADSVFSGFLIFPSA
Sequence of UniProt P02745 (chain, as listed by the source, chain 2 of 3): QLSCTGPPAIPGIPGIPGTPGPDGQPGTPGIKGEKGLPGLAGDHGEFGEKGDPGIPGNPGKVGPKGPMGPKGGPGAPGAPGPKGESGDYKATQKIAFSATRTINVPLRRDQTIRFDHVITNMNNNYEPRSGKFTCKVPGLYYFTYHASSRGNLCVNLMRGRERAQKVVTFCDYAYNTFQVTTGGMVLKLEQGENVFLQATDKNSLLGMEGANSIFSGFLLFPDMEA
Sequence of UniProt P02745 (chain, as listed by the source, chain 3 of 3): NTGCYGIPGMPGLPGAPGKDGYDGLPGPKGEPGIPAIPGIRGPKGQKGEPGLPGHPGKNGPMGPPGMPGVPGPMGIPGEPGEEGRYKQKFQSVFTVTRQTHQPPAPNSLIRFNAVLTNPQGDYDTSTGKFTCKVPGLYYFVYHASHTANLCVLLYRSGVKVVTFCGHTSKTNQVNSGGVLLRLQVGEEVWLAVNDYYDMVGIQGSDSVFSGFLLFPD

% inhibition of binding of C1q to activated endothelial cells: 94%
Substance: control antibody comprising murine heavy and light chain variable regions of the anti-C1q antibody M1 (Annexon Biosciences) with hIgG1 and kappa constant regions
